Results taken from US20230025600A1, “TREATMENT OF CANCERS WITH ANTIBODY DRUG CONJUGATES (ADC) THAT BIND TO 191P4D12 PROTEINS” (AGENSYS, INC., priority 2019, published 2023).

Experiments:
pregnant rats = assay: Rat embryo-fetal development study; assay type: in vivo
Source text: Additionally, skeletal anomalies (asymmetric, fused, incompletely ossified, and misshapen sternebrae, misshapen cervical arch, and unilateral ossification of the thoracic centra) and decreased fetal weight were observed.

[1] = Immunogenicity (anti-therapeutic antibody, ATA); assay type: in vivo, human; settings: 365 patients tested
Source text: As with all therapeutic proteins, there is a potential for immunogenicity. The detection of antibody formation is highly dependent on the sensitivity and specificity of the assay. Additionally, the observed incidence of antibody (including neutralizing antibody) positivity in an assay may be influenced by several factors including assay methodology, sample handling, timing of sample collection, concomitant medications, and underlying disease. For these reasons, comparison of the incidence of antibodies in the studies described below with the incidence of antibodies in other studies or other enfortumab vedotin products may be misleading.
A total of 365 patients were tested for immunogenicity to PADCEV; 4 patients (1%) were confirmed to be transiently positive for anti-therapeutic antibody (ATA), and 1 patient (0.3%) was confirmed to be persistently positive for ATA at any post-baseline time point. No impact of ATA on efficacy, safety and pharmacokinetics was observed.

[2] = Cardiac electrophysiology (QTc); assay type: in vivo, human; settings: at the recommended dose; large = >20 msec
[3] = Pooled safety in 310 patients (EV-201, EV-101, EV-102); assay type: in vivo, human
Protocol: Because clinical trials are conducted under widely varying conditions, adverse reaction rates observed in the clinical trials of a drug cannot be directly compared to rates in the clinical trials of another drug and may not reflect the rates observed in practice. The data in the WARNINGS AND PRECAUTIONS section reflect exposure to PADCEV as a single agent at 1.25 mg/kg in 310 patients in EV-201, EV-101 (NCT02091999), and EV-102 ([…]). Among 310 patients receiving PADCEV, 30% were exposed for ≥6 months and 8% were exposed for ≥12 months.

EV-201 adverse reactions = assay type: in vivo, human
Protocol: The data described in this section reflect exposure to PADCEV from EV-201, a single arm study in patients (n=125) with locally advanced or metastatic urothelial cancer who had received prior treatment with a PD-1 or PD-L1 inhibitor and platinum-based chemotherapy. Patients received PADCEV 1.25 mg/kg on Days 1, 8 and 15 of a 28-day cycle until disease progression or unacceptable toxicity. The median duration of exposure to PADCEV was 4.6 months (range: 0.5-15.6).

[4] = Outcome of adverse reactions under the dose modification schedule; assay type: in vivo, human
Source text: The results based on the dose modification schedule as provided are as follows.

[5] = 310 patients in clinical trials
[6] = 310 patients in clinical trials, 1.25 mg/kg
[7] = EV-201, patients who experienced rash
[8] = among patients who experienced hyperglycemia
[9] = among patients who experienced it, dose modification schedule

enfortumab vedotin-ejfv [PADCEV]
findings in pregnant rats dosed during organogenesis (pregnant rats; maternal exposures approximately similar to exposure at recommended human dose of 1.25 mg/kg): maternal toxicity, embryo-fetal lethality, structural malformations and skeletal anomalies
skeletal anomalies and decreased fetal weight (pregnant rats; rat pilot embryo-fetal development study): observed
exposure at 5 mg/kg relative to the recommended human dose (pregnant rats; rat, 5 mg/kg): approximately 3 times the exposure at the recommended human dose
outcome at 2 mg/kg (pregnant rats; rat, gestation day 6 and 13, 2 mg/kg, approximately similar to exposure at recommended human dose): maternal toxicity, embryo-fetal lethality and structural malformations
outcome at the maternally toxic dose of 5 mg/kg (pregnant rats; rat, gestation day 6 and 13, 5 mg/kg): complete litter loss in all pregnant rats
impact of ATA on efficacy, safety and pharmacokinetics [1]: No impact
patients persistently positive for ATA at any post-baseline time point ([1]; 1 patient): 0.3%
patients transiently positive for anti-therapeutic antibody (ATA) ([1]; 4 patients): 1%
QTc prolongation [2]: no large QTc prolongation
blurred vision ([3]; 310 patients): 14%
dry eye symptoms ([3]; 310 patients): 19%
extravasation reactions with secondary cellulitis, bullae, or exfoliation ([3]; 310 patients): One
median time to onset to symptomatic vision disorder ([3]; 310 patients): 3.1 months
ocular disorders ([3]; 310 patients): 46%
skin and soft tissue reactions secondary to extravasation ([3]; 310 patients): 1.3%
Grade 3-4 skin reactions [3, 5]: 10%
maculopapular rash [3, 5]: 26%
pruritus [3, 5]: 30%
skin reactions [3, 5]: 54%
peripheral neuropathy Grade 3 reactions [3, 6]: 2%
peripheral neuropathy, predominantly sensory [3, 6]: 49%
differences in safety or effectiveness between patients 65 years or older and younger patients ([3]; 310 patients, 187 were 65 years or older, 80 were 75 years or older): No overall differences
erythema, swelling, increased temperature and pain worsened until, after extravasation ([3]; infusion site extravasation): 2 to 7 days
extravasation reactions resolved within, of peak ([3]; infusion site extravasation): 1-4 weeks
incidence of Grade 3-4 hyperglycemia with higher body mass index and higher baseline A1C ([3]; patients treated with PADCEV): increased consistently
herpes zoster (EV-201 adverse reactions; EV-201): 3%
infusion site extravasation (EV-201 adverse reactions; EV-201): 2%
median time to onset of Grade >=2 peripheral neuropathy (EV-201 adverse reactions; EV-201): 3.8 months
median time to onset of severe skin reactions (EV-201 adverse reactions; EV-201): 0.8 months
peripheral neuropathy: complete resolution at last evaluation (EV-201 adverse reactions; EV-201): 19%
peripheral neuropathy: partial improvement at last evaluation (EV-201 adverse reactions; EV-201): 26%
Alopecia, Grade >= 3 (EV-201 adverse reactions; EV-201, n = 125): 0%
Any adverse reaction, All Grades (EV-201 adverse reactions; EV-201, n = 125): 100%
Any adverse reaction, Grade >= 3 (EV-201 adverse reactions; EV-201, n = 125): 73%
Decreased appetite, Grade >= 3 (EV-201 adverse reactions; EV-201, n = 125): 2%
Dry skin, Grade >= 3 (EV-201 adverse reactions; EV-201, n = 125): 0%
Dysgeusia, Grade >= 3 (EV-201 adverse reactions; EV-201, n = 125): 0%
Nausea, Grade >= 3 (EV-201 adverse reactions; EV-201, n = 125): 3%
Peripheral neuropathy (grouped term), Grade >= 3 (EV-201 adverse reactions; EV-201, n = 125): 4%
Pruritus, All Grades (EV-201 adverse reactions; EV-201, n = 125): 26%
Pruritus, Grade >= 3 (EV-201 adverse reactions; EV-201, n = 125): 2%
Vomiting, All Grades (EV-201 adverse reactions; EV-201, n = 125): 18%
Vomiting, Grade >= 3 (EV-201 adverse reactions; EV-201, n = 125): 2%
adverse reactions leading to discontinuation (EV-201 adverse reactions; EV-201, n = 125): 16%
adverse reactions leading to dose interruption (EV-201 adverse reactions; EV-201, n = 125): 64%
adverse reactions leading to dose reduction (EV-201 adverse reactions; EV-201, n = 125): 34%
dose interruption due to fatigue (EV-201 adverse reactions; EV-201, n = 125): 6%
dose interruption due to peripheral neuropathy (EV-201 adverse reactions; EV-201, n = 125): 18%
dose interruption due to rash (EV-201 adverse reactions; EV-201, n = 125): 9%
dose reduction due to fatigue (EV-201 adverse reactions; EV-201, n = 125): 4%
dose reduction due to peripheral neuropathy (EV-201 adverse reactions; EV-201, n = 125): 12%
dose reduction due to rash (EV-201 adverse reactions; EV-201, n = 125): 6%
fatal adverse reaction: acute respiratory failure (EV-201 adverse reactions; EV-201, n = 125): 0.8%
fatal adverse reaction: aspiration pneumonia (EV-201 adverse reactions; EV-201, n = 125): 0.8%
fatal adverse reaction: cardiac disorder (EV-201 adverse reactions; EV-201, n = 125): 0.8%
fatal adverse reaction: sepsis (EV-201 adverse reactions; EV-201, n = 125): 0.8%
fatal adverse reactions (EV-201 adverse reactions; EV-201, n = 125): 3.2%
peripheral neuropathy leading to treatment discontinuation (EV-201 adverse reactions; EV-201, n = 125): 6%
serious adverse reaction: diarrhea (EV-201 adverse reactions; EV-201, n = 125): 4%
serious adverse reaction: fatigue (EV-201 adverse reactions; EV-201, n = 125): 2%
serious adverse reaction: nausea (EV-201 adverse reactions; EV-201, n = 125): 2%
serious adverse reaction: rash (EV-201 adverse reactions; EV-201, n = 125): 3%
serious adverse reaction: vomiting (EV-201 adverse reactions; EV-201, n = 125): 2%
serious adverse reactions (EV-201 adverse reactions; EV-201, n = 125, 1.25 mg/kg Days 1, 8, 15 of 28-day cycle): 46%
rash: complete resolution (EV-201 adverse reactions; [7]): 65%
rash: partial improvement (EV-201 adverse reactions; [7]): 22%
patients who developed Grade 3-4 hyperglycemia (EV-201 adverse reactions; EV-201, baseline hemoglobin A1C >=8% excluded): 8%
hyperglycemia: complete resolution [4, 8]: 57%
hyperglycemia: some improvement [4, 8]: 14%
rash: complete resolution [4, 9]: 73%
rash: patients with resolution or improvement [4, 9]: 93%
rash: some improvement [4, 9]: 20%
peripheral neuropathy: resolution or Grade 1 after the dose modification ([4]; among patients who experienced peripheral neuropathy): 76%
ongoing rash that was Grade 1 ([4]; of those with ongoing rash): 75%
